According to the DeepSol protein solubility set:

assay: soluble on expression in E. coli; label from the status in PepcDB or PDB records

Row | Sequence | soluble on expression in E. coli
1 | MMFSLSKELEEYRAKIREYAQKTVREYAKQMDETNDGGDKIVKDLGEMGLLGMKQPTKYGGLGLGEMAFAIATEELGAESGGASHSLHTQQNALQLLVSVGGDSAQEWIEKGIKAKEVYAVALTEPQAGSDLGALQTTAKPDGNELVLNGEKIFTSAASFSTKMVVLARTSGNPGDRQGISLLLIDSKLPGIEIHKLDIMGIRGAGVSYVKFNNVRIPKDSIIGKEGDAYRGALKALMVSRNGYAGIAVGIARGALEEAISRAQSRKQFGKALIEQEWISFNLADAYIKVEAARLLTWRAAQLFDNDYEATTEASMAKYYAAVTATEVTRLALHIFGGHGLNRGSKVERLYRDAKIMEIAEGTNEMQLVAVSRLFQPKK | soluble
2 | MSYKSSKYNLFIERKREVISFNTLRNIIAKCDIETKEILENETFNKLPPDLLNKMISEGIIVNKELNELNIIKLTRMMYYGQLLHYLSIGLTLVMTYSCNLRCPYCYEGDIKSKGGLLTREKIETILTFASAHAQGDKKPTISVSFYGGEPLLNWKGCEYTLQRLEEMKENKEIRDYSAGFVTNGTLINEDIVDAINNYNVYSMQITLDGPKEIHDKRRIKSNGEGTFDQIIENIKLLNRRIANKNFHLALRINVDKTNYKKIPELLDFLKDEGLGGIPISYGIVRGNLPYCSSNCGVYFSGSDLQKYLPYLWKEAYRRGFEVWTRPNLRFIYCGYDNPFGYVIDPELKVYPCWEMVGIEDYQIGEIQKDGTMKITPFYYDAKSRDPTEYDECKNCKLLPVCMGGCAMESIRKNGHPNGPGCDINKYIWKEGLKFYLMKKYPNLFSKETLIENLGRVPNRDEQTKNRIMFNT | not soluble
3 | KQVYAFDIQKQALEKTQERLHQADLTNAQLILQGHETLDQFVIKAKAGIFNLGYLPAADKSVITRPQTTIEALEKLCGLLVKGGRIAIMIYYGHEGGDLERDAVLDFVIQLNQQEYTAAIYRTLNQVNNPPFLVMIEKLERYRH | not soluble
4 | MRCPKCNYHKSSVVDSRQAEDGNTIRRRRECEQCHTRFTTFERVEELPLLVIKKDGTREQFSRDKILNGVVQSAQKRPVSSTDIENVISRIEQEVRTTYENEVSSTAIGNLVMDELAELDEITYVRFASVYKSFKDVDEIEELLQQITNRVRGKKKRLNNDETN | not soluble
5 | MFAERLKELRKREAGLTQERLAMQLGMAKTTLASYEQGKRQPDLETLSKIADRFSVTTDYLLGKNGTPKWATKKDTIDLKDFLEANEGSMTYGGEDLTEEEKQQVRVAMATIFWKRHKHD | not soluble
6 | MGSDKIHHHHHHMTEDIIKKYRGKLPESILEQWHLFGFAGYLNGLYWITNPDDYAEVIYDWLEETPLPDDDVYHVLARSAFGELLIWGERNYGRYYIKTMEGILHDNGEQLESAEFYGSDFFFLPKKNYLDYTDKNGNKLFDRAVKKLGVLKADEMYAFEPALALGGEESLQHLTKVNLPVHMKLLKQVTPLRLRTFEDLTAALYGTSYSVDDLTSGQDAESQYQESVQAGEVCPRTGYWTTPAQPNTRHYCKKGEVLPEIKEQDWGEVYWYWDGEN | not soluble
7 | PAQDYRCQLSRNYGKGSGSFTNYYYDKATSSCKTFRYRGSGGNGNRFKTLEDCEATCVTAE | soluble
8 | MAMDLRDPNVWISHLLENLPEEKLASALKDDNPDWEYIDGEIVKLGSLAHAQLDIPELQRRGLQLLASESKDFRLLAHLLRTLQHAGDPLLALHLLTLYVEHYWTVAAPQNMAHKKRFASQIIKRFETVLKAFHKTLPQRSAILCWVSWRNWRSAGSHITSRNWHRLPMIFLPCTSVRLIVRLLLRSPLRRPPVVHHKPPSRLKAA | not soluble
9 | MSDESNPPKVILLVEDSKADSRLVQEVLKTSTIDHELIILRDGLAAMAFLQQQGEYENSPRPNLILLDLNLPKKDGREVLAEIKQNPDLKRIPVVVLTTSHNEDDVIASYELHVNCYLTKSRNLKDLFKMVQGIESFWLETVTLPAAPG | soluble
10 | MGSDKIHHHHHHMESSTNPWWVPEDFLAKLQKRVNPEKLAKYGLNDIRQAYFGIYLGIRLDDGSRAPQFLPYKPGFANHIFFLGRSGYGKTSIMRALAEGIYDYFYLNGRKALIIIIEAKYDKTKVKKLMTFREYIIQNFGYDYLLENYPWLENYLQEYSQKRPLLGKIGDFAFGWPNVEGIMTKVDSHHNQFQRHRLQPMIYPSTRIVFRPTRDLSLISRDNGMNVQVVEGKISYERLEVEDLTKFTYVNTQTNYMRILDIYWGQKKIRDPDRFLKEVIRNEYPPRSGETIEDILRSRDRTIANLRTLMNKLKSDRLFTKDPKEEFVKKLTPDRINVIDFSANSRLSDEEEAEIFNILVNYVVNEFALKKDIPVFIIVDEVQNIAKHRLGMAAINKIYREGRSLEISLISGTQYLSGLSKDLVRGATHIGIVGRLASERDAELLEEILDERFDTGEKPRSLQELFRIRKARRGKGKFSIDCEYTFTIEYRVPKTL | not soluble
11 | MGIKGSKPKLSKEDLEFLKKNTNFTEEQIKEWYKGFVQDCPKGHLTKEQFIKVYKDFFPSGSAEGFCEHVFRTFDTDNSGFIDFKEFLLAINVTSSGTPEQKLEWAFRMYDIDGNGTIDEKEMIKIIEAIYEMLGPEVTKSADDSPRKRAKMIFEKMDVNNDKELTLKEFVDGCLADKELFQILTNEVKK | not soluble
12 | MAGSSEEAPDYGRGVVIMDDWPGYDLNLFTYPQHYYGDLEYVLIPHGIIVDRIERLAKDIMKDIGYSDIMVLCVLKGGYKFCADLVEHLKNISRNSDRFVSMKVDFIRLKSYRNDQSMGEMQIIGGDDLSTLAGKNVLIVEDVVGTGRTMKALLSNIEKYKPNMIKVASLLVKRTSRSDGFRPDYAGFEIPNLFVVGYALDYNEYFRDLNHICVINEHGKEKYRV | soluble
13 | MGSDKIHHHHHHMRHENRVAWTEGMFLRVQHFQQSDRWTERLVRSVARSLTPYPWGILEIGLDRSALAIGQFALSGLRGMLPDGTPFDAPEDTDLPAALELDESVKNAVIYLALPARQPGKADMAQTGTSAVNSVRLVASPYEAPDANVETDFLAPIDVGRLNLKLLKTGDDLAGYELLGLARVVEVRSDKAVLLDPDFIPASLNCTASSRLHELMTELLGIVRHRAEAIAERIGDPTIRGTAEVGDYFLLQILNRADPLLKHALSNATRLHPIQFYEQCIQLAGELATFTMESKRATDFPAYRHDDLKATFGAVFEDLRTSLSSVLAQSAVAIELVERRHGVRVGTINDRSLLRDAGFVLAVRADMSAEDVRRTLPARIKVGPVERIAELVNVALPGIPVRPLPVLPRQLPYRAGTIYFELDTKTPLWKQLETSGAIALHLAGDFPGLELEMWALRE | not soluble
14 | MILDADYITEDGKPVIRVFKKEKGEFKIDYDRDFEPYIYALLKDDSAIEDIKKITAERHGTTVRVTRAERVKKKFLGRPVEVWKLYFTHPQDVPAIRDKIREHPAVVDIYEYDIPFAKRYLIDRGLIPMEGDEELRMLAFDIETLYHEGEEFGEGPILMISYADEEGARVITWKNIDLPYVESVSTEKEMIKRFLKVIQEKDPDVLITYNGDNFDFAYLKKRSEMLGVKFILGRDGSEPKIQRMGDRFAVEVKGRIHFDLYPVIRRTINLPTYTLETVYEPVFGQPKEKVYAEEIARAWESGEGLERVARYSMEDAKATYELGKEFFPMEAQLSRLVGQSLWDVSRSSTGNLVEWFLLRKAYERNDVAPNKPDERELARRTESYAGGYVKEPEKGLWENIVYLDYKSLYPSIIITHNVSPDTLNREGCREYDVAPQVGHRFCKDFPGFIPSLLGDLLEERQKVKKKMKATVDPIERKLLDYRQRAIKILANSYYGYYAYANARWYCRECAESVTAWGRQYIETTMREIEEKFGFKVLYADTDGFFATIPGADAETVKNKAKEFLNYINPRLPGLLELEYEGFYRRGFFVTKKKYAVIDEEDKITTRGLEIVRRDWSEIAKETQARVLEAILKHGDVEEAVRIVKEVTEKLSRHEVPPEKLVIYEQITRDLRSYRATGPHVAVAKRLAARGIKIRPGTVISYIVLKGPGRVGDRAIPFDEFDPAKHRYDAEYYIENQVLPAVERILRAFGYRKEDLRYQKTKQAGLGAWLKPKT | soluble
15 | SLIENSHVKKDDIWPSGGQMTVKDLTAKYTEGGNAILENISFSISPGQRVGLLGRTGSGKSTLLSAFLRLLNTEGEIQIDGVSWDSITLEQWRKAFGVIPQKVFIFSGTFRKNLDPYEQWSDQEIWKVADEVGLRSVIEQFPGKLDFVLVDGGCVLSHGHKQLMCLARSVLSKAKILLLDEPSAHLDPVTYQIIRRTLKQAFADCTVILCEARIEAMLECDQFLVIEENKVRQYDSILRLYHYPADRFVAGFIGSPKMNFLPVKVTATAIDQVQVELPMPNRQQVWLPVESRDVQVGANMSLGIRPEHLLPSDIADVILEGEVQVVEQLGNETQIHIQIPSIRQNLVYRQNDVVLVEEGATFAIGLPPERCHLFREDGTACRRLHKEPGV | not soluble
16 | GPGSMLSRIKKQQAETRDAAGQSHSSGGGPSTASSEPVAILRLKKDLDNLDGIRSTIDIPDPQNMLRMKVTVRPPYPSIWQGGIFEFLLEFREDYPYEGPRVRYLGPYRIWHPNIEGDEYMEGEGGLRGDVKNTWGVCLSFQTEWKPTMSLRDIIIMIELLFQDPNPDDPLHGTAKQAAQMMKDNPAKFRDKARRWMRGGYIE | soluble
17 | ITGTSTVGVGRGVLGDQKNINTTYSTYYYLQDNTRGNGIFTYDAKYRTTLPGSLWADADNQFFASYDAPAVDAHYYAGVTYDYYKNVHNRLSYDGNNAAIRSSVHYSQGYNNAFWNGSQMVYGDGDGQTFIPLSGGIDVVAHELTHAVTDYTAGLIYQNESGAINEAISDIFGTLVEFYANKNPDWEIGEDVYTPGISGDSLRSMSDPAKYGDPDHYSKRYTGTQDNGGVHINSGIINKAAYLISQGGTHYGVSVVGIGRDKLGKIFYRALTQYLTPTSNFSQLRAAAVQSATDLYGSTSQEVASVKQAFDAVGVK | soluble
18 | QLLKVCMKLPKIDWYLGLSCPSNDMPLYLMRLFSRKPVVQMIHGPVGVARSSGYCLVKASAIYYLSNTRESLINALQAYLKTPKPATERYWSTLNASTFVNGLSRERWPKQANPISNRVFWAASLLKWKNVDLLLDALTLENTTTIQSTICYIKPNVPGVEYSTPDFNTKGVDWYESPNNLNELRAQCGVFVSTSVNEP | not soluble
19 | MTFMSEVKFETVEQKASYGIGLQMGQQLAGSGLEGLNVAAIAAGIATALVGEQPAISIDEINQALHAIHMRAEEARQEAAKVAASEGEAFLKDNALRPEVTVLESGLQYEVLVEGNGAIPTSDKSVRVHYHGQLVDGTVFDSSVSRGQPAEFPVTGVIRGWVEALQLMPVGSKWKLYIPHNLAYGERGAGAAIPPFAALVFEVELLDIL | not soluble
20 | MSLDKRLFLDPDTAIERLQRLQQALEMGVSSLMALVTTDWRCYGYMERHINEIRTAVDKVELFLKEYLHFVKGAVANAACLPELILHNKMKRELQRVEDSHQILSQTSHDLNECSWSLNILAINKPQNKCDDLDRFVMVAKTVPDDAKQLTTTINTNAEALFRPGPGSLHLKNGPESIMNSTEYPHGGSQGQLLHPGDHKAQAHNKALPPGLSKEQAPDCSSSDGSERSWMDDYDYVHLQGKEEFERQQKELLEKENIMKQNKMQLEHHQLSQFQLLEQEITKPVENDISKWKPSQSLPTTNSGVSAQDRQLLCFYYDQCETHFISLLNAIDALFSCVSSAQPPRIFVAHSKFVILSAHKLVFIGDTLTRQVTAQDIRNKVMNSSNQLCEQLKTIVMATKMAALHYPSTTALQEMVHQVTDLSRNAQLFKRSLLEMATEGHHHHHH | soluble
